The source of these data is PMC3942423 (Nature chemical biology, 2009).

The target of one series is T1, Bt3990 (Bacteroides thetaiotaomicron, UniProt Q8A0N1).
T1 sequence (Q8A0N1 20-755): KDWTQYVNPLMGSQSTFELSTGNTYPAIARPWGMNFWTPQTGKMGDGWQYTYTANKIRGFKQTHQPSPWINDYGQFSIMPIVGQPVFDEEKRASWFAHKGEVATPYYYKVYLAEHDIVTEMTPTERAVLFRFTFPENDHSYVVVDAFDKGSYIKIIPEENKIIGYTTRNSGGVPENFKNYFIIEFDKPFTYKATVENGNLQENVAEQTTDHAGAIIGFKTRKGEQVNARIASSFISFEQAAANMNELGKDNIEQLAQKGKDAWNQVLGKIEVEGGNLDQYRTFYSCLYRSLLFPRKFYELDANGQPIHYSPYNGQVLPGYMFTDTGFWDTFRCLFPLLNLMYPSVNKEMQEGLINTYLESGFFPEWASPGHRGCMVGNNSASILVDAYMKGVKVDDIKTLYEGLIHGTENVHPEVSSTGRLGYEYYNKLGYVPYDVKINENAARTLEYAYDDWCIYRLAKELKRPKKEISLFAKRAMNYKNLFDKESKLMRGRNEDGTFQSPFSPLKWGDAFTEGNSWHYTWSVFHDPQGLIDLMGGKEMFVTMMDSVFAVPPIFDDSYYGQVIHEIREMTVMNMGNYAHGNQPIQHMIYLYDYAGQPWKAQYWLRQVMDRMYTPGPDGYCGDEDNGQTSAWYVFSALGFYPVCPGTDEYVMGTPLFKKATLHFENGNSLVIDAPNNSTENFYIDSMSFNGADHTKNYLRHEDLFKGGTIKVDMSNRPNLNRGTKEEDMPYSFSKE
Kind of series: inhibition studies. Format: biochemical.

Another series relates to GH92 enzymes. Kind of series: EDTA inactivation and metal reactivation. Format: biochemical, Bacteroides thetaiotaomicron. Conditions: all the GH92 enzymes analyzed.
In another series the test system is Bt3990 E533A variant. The series is described as follows: kinetics of enzyme variant on DNP-Man. The format is biochemical, Bacteroides thetaiotaomicron. As to conditions: E533A variant of Bt3990, activated aryl mannoside.
The next series addresses Bt3990 E585A (Bacteroides thetaiotaomicron, UniProt Q8A0N1, E585A). Kind of series: kinetics of enzyme variant. The format is biochemical. As to conditions: E585A of Bt3990, activated substrate.
Substrate in series [1]: O=[N+]([O-])c1ccc(O[C@H]2O[C@H](CO)[C@@H](O)[C@H](O)[C@@H]2O)cc1
Kind of series: 4NP-Man hydrolysis kinetics. Format: biochemical, Bacteroides thetaiotaomicron. Conditions: other: substrate 4NP-Man, enzyme Bt4093, pH 7.0.

Substrate in series [2]: OC[C@H]1O[C@H](O[C@H]2[C@H](O)[C@H](O)[C@@H](O)O[C@@H]2CO)[C@@H](O)[C@@H](O)[C@@H]1O
The series is described as follows: mannobiose hydrolysis kinetics. Conditions: other: most active mannobiose substrate, enzyme Bt4093, pH 7.0. Format: biochemical, Bacteroides thetaiotaomicron.

Broadly, the Ki is the equilibrium dissociation constant of an inhibitor or competing ligand from its target. As for `OC[C@@H]1[C@@H](O)[C@H](O)[C@H](O)c2nccn21` [mannoimidazole], the affinity at Bt3990 corresponds to a Ki of 140 µM.
`[Ca+2]` [calcium]: in the series on GH92 enzymes, the “recovery of activity after EDTA” value was “fully recovered”.
As for `O=[N+]([O-])c1ccc(O[C@H]2O[C@H](CO)[C@@H](O)[C@H](O)[C@@H]2O)c([N+](=O)[O-])c1` [DNP-Man], the “kcat/Km relative to the wild-type enzyme” value in the series with Bt3990 E533A variant is 370%. In addition, at Bt3990 E585A, the “change of kcat/Km” value is reported as “increased”.
As to `O=C(O)CN(CCN(CC(=O)O)CC(=O)O)CC(=O)O` [EDTA], the “effect on enzyme activity” value with GH92 enzymes is listed as “inactivated”.

B1: Bt4093 (Bacteroides thetaiotaomicron VPI-5482) (protein)
chain: GDYVHQVNTLIGTKGTGLTSGYLYPGATYPYGMVQFTPSYFSKRSGFVINQLSGGGCEHMGNFPTFPVKGKLKMSPDNILNYRINVSEEKGHAGYYEAMVQEDIKAKLTVTERTGMASYEYPADQQYGTIIIGGGISATPIEQAAIVITAPNKCEGYAEGGNFCGLRTPYKVYFVAEFDTDAFETGTWKREELMPNTTFAEGEYSGVYFTFDVNKKKNIQYKIGVSYVSVENARENLKAENAEWDFQKIQNQAEAKWNHYLGMIEVEGTNPDRTTQFYTHLYRSFIHPNVCSDVNGEYMGADFRVHKSRSKHYTSFSNWDTYRTQIQLLSMLDPEVASDIVISHQLFAEQSGGSFPRWVMANIETGVMQGDPTPILIANAYAFGARNYDPKPIFKIMRKGAEEPGSKSQDVETRPGLKQYLDKGYYNASIQLEYTSADFAIGQFALHAVGDEFASWRYFHFARSWKNLYNSDTGWLQSRNPDGSWKSLGEDFRESTYKNYFWMVPYDIAGLVEIIGGKEKAEKRLDEFFTRLDAGYNDAWFASGNEPSFHIPWIYNWIGRPYKTQEIINRVLNEQYSSKIDGLPGNDDLGTMGAWYVFACIGLYPEIPGVGGFTVNTPIFSSVKVHLKKGDIVIKGGSEKDIYIKSMKLNGKSYESTWIDWDQLNSGATIEYRTSGKPDMKWGAKVVPPSFP
Usually Km stands for the substrate concentration at which the rate is half of its maximum. One may read the kcat as the number of substrate molecules converted per active site and unit of time at saturation. The term kcat/Km denotes the second-order rate constant that governs catalysis at low substrate concentration. With B1, in series [1], the Km is listed as 1.3 ± 0.19 mM, the kcat amounted to 0.0112 ± 0.000817 s⁻¹ and the kcat/Km stood at 9.08 M⁻¹ s⁻¹. Further, in series [2], the Km is 35 ± 2.4 mM, the kcat is 1.33 ± 0.065 s⁻¹ and the kcat/Km was 38.3 M⁻¹ s⁻¹.
